Laboratory results as given in US20260297144 (published 2026).

Tests used:
C3b [1] = target: T1, C3b (human, UniProt P01024); experiment: SPR steady state, Fc 3-1, 10C
C3b [2] = target: T1, C3b; experiment: SPR steady state, Fc 2-1, 10C
C3b [3] = target: T1, C3b; experiment: SPR steady state, Fc 4-1, 10C

T1 sequence (P01024 23-667, chain 1 of 2): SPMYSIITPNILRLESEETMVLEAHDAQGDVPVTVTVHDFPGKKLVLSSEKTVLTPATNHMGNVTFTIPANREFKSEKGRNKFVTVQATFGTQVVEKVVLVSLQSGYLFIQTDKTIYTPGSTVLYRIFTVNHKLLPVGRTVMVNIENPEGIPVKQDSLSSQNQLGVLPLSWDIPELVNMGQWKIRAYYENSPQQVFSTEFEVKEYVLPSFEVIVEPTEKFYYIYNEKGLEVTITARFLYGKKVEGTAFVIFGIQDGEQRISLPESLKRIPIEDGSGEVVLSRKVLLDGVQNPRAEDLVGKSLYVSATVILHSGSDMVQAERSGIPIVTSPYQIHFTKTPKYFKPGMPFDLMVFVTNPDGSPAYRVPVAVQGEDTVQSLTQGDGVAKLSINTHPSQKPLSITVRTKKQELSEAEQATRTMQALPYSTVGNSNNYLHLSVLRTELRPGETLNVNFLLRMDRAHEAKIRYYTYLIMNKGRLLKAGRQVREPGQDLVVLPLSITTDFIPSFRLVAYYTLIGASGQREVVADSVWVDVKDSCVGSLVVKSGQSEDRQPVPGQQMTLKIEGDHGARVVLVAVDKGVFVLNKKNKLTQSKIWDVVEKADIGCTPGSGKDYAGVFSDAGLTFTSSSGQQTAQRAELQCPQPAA
T1 sequence (P01024 749-1663, chain 2 of 2): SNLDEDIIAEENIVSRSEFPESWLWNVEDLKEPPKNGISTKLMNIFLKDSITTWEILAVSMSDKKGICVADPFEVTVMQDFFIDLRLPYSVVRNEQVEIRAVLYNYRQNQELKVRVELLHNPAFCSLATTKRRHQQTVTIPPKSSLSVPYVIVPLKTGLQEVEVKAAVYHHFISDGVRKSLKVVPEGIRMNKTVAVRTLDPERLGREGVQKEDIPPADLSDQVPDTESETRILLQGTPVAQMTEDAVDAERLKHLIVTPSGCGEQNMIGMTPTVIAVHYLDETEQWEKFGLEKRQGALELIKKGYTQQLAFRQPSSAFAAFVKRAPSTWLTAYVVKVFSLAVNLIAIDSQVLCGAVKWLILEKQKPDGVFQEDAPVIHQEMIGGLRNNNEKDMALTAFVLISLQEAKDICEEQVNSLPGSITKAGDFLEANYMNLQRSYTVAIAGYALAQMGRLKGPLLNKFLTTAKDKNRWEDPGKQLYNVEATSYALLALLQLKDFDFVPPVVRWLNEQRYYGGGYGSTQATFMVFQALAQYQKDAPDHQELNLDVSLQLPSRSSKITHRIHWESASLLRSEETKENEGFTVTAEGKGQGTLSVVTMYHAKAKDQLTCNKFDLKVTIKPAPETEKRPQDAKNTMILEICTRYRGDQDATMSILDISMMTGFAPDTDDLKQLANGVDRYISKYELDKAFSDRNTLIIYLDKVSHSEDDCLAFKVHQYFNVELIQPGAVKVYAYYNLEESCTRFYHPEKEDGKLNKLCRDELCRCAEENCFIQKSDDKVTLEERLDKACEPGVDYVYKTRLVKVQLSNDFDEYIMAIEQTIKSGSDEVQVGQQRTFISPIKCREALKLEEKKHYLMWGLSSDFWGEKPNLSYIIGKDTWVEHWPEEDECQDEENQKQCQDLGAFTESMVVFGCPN

Kd (C3b [1]) [nM] | Kd (C3b [2]) [nM] | Kd (C3b [3]) [nM] | Binder
42.9 | 48.2 | 51 | Sial-moss FH (protein) EDCNELPPRRNTEILTGSWSDQTYPEGTQAIYKCRPGYRSLGNIIMVCRKGEWVALNPLRKCQKRPCGHPGDTPFGTFTLTGGNVFEYGVKAVYTCNEGYQLLGEINYRECDTDGWTNDIPICEVVKCLPVTAPENGKIVSSAMEPDREYHFGQAVRFVCNSGYKIEGDEEMHCSDDGFWSKEKPKCVEISCKSPDVINGSPISQKIIYKENERFQYKCNMGYEYSERGDAVCTESGWRPLPSCEEKSCDNPYIPNGDYSPLRIKHRTGDEITYQCRNGFYPATRGNTAKCTSTGWIPAPRCTLKPCDYPDIKHGGLYHENMRRPYFPVAVGKYYSYYCDEHFETPSGSYWDHIHCTQDGWSPAVPCLRKCYFPYLENGYNQNYGRKFVQGKSIDVACHPGYALPKAQTTVTCMENGWSPTPRCIRVKTCSKSSIDIENGFISESQYTYALKEKAKYQCKLGYVTADGETSGSITCGKDGWSAQPTCIKSCDIPVFMNARTKNDFTWFKLNDTLDYECHDGYESNTGSTTGSIVCGYNGWSDLPICYERECELPKIDVHLVPDRKKDQYKVGEVLKFSCKPGFTIVGPNSVQCYHFGLSPDLPICKEQVQSCGPPPELLNGNVKEKTKEEYGHSEVVEYYCNPRFLMKGPNKIQCVDGEWTTLPVCIVEESTCGDIPELEHGWAQLSSPPYYYGDSVEFNCSESFTMIGHRSITCIHGVWTQLPQCVAIDKLKKCKSSNLIILEEHLKNKKEFDHNSNIRYRCRGKEGWIHTVCINGRWDPEVNCSMAQIQLCPPPPQIPNSHNMTTTLNYRDGEKVSVLCQENYLIQEGEEITCKDGRWQSIPLCVEKIPCSQPPQIEHGTINSSRSSQESYAHGTKLSYTCEGGFRISEENETTCYMGKWSSPPQCEGLPCKSPPEISHGVVAHMSDSYQYGEEVTYKCFEGFGIDGPAIAKCLGEKWSHPPSCIKTDCLSLPSFENAIPMGEKKDVYKAGEQVTYTCATYYKMDGASNVTCINSRWTGRPTCRDTSCVNPPTVQNAYIVSRQMSKYPSGERVRYQCRSPYEMFGDEEVMCLNGNWTEPPQCKDSTGKCGPPPPIDNGDITSFPLSVYAPASSVEYQCQNLYQLEGNKRITCRNGQWSEPPKCLHPCVISREIMENYNIALRWTAKQKLYSRTGESVEFVCKRGYRLSSRSHTLRTTCWDGKLEYPTCAKR
104 | 110 | 144 | Serum derived FH (sd-FH) (protein) EDCNELPPRRNTEILTGSWSDQTYPEGTQAIYKCRPGYRSLGNVIMVCRKGEWVALNPLRKCQKRPCGHPGDTPFGTFTLTGGNVFEYGVKAVYTCNEGYQLLGEINYRECDTDGWTNDIPICEVVKCLPVTAPENGKIVSSAMEPDREYHFGQAVRFVCNSGYKIEGDEEMHCSDDGFWSKEKPKCVEISCKSPDVINGSPISQKIIYKENERFQYKCNMGYEYSERGDAVCTESGWRPLPSCEEKSCDNPYIPNGDYSPLRIKHRTGDEITYQCRNGFYPATRGNTAKCTSTGWIPAPRCTLKPCDYPDIKHGGLYHENMRRPYFPVAVGKYYSYYCDEHFETPSGSYWDHIHCTQDGWSPAVPCLRKCYFPYLENGYNQNYGRKFVQGKSIDVACHPGYALPKAQTTVTCMENGWSPTPRCIRVKTCSKSSIDIENGFISESQYTYALKEKAKYQCKLGYVTADGETSGSITCGKDGWSAQPTCIKSCDIPVFMNARTKNDFTWFKLNDTLDYECHDGYESNTGSTTGSIVCGYNGWSDLPICYERECELPKIDVHLVPDRKKDQYKVGEVLKFSCKPGFTIVGPNSVQCYHFGLSPDLPICKEQVQSCGPPPELLNGNVKEKTKEEYGHSEVVEYYCNPRFLMKGPNKIQCVDGEWTTLPVCIVEESTCGDIPELEHGWAQLSSPPYYYGDSVEFNCSESFTMIGHRSITCIHGVWTQLPQCVAIDKLKKCKSSNLIILEEHLKNKKEFDHNSNIRYRCRGKEGWIHTVCINGRWDPEVNCSMAQIQLCPPPPQIPNSHNMTTTLNYRDGEKVSVLCQENYLIQEGEEITCKDGRWQSIPLCVEKIPCSQPPQIEHGTINSSRSSQESYAHGTKLSYTCEGGFRISEENETTCYMGKWSSPPQCEGLPCKSPPEISHGVVAHMSDSYQYGEEVTYKCFEGFGIDGPAIAKCLGEKWSHPPSCIKTDCLSLPSFENAIPMGEKKDVYKAGEQVTYTCATYYKMDGASNVTCINSRWTGRPTCRDTSCVNPPTVQNAYIVSRQMSKYPSGERVRYQCRSPYEMFGDEEVMCLNGNWTEPPQCKDSTGKCGPPPPIDNGDITSFPLSVYAPASSVEYQCQNLYQLEGNKRITCRNGQWSEPPKCLHPCVISREIMENYNIALRWTAKQKLYSRTGESVEFVCKRGYRLSSRSHTLRTTCWDGKLEYPTCAKR
